Patent publication US20020006903A1
pEC50: −log10 of the molar value.

Tests used:
[1] = target: T cell receptor of 2C cytotoxic T lymphocytes; assay: cell-based or functional assay
[2] = target: T cell receptor of 2C cytotoxic T lymphocytes; assay: flow cytometry on 2C T cells, varying concentrations of complex
[3] = target: T cell receptor of 2C cytotoxic T lymphocytes; assay: flow cytometry on 2C T cells, actively loaded complex
[4] = target: T cell receptor of 2C cytotoxic T lymphocytes; assay: flow cytometry on 2C T cells, passively loaded complex
[5] = target: T cell receptor of 2C cytotoxic T lymphocytes; assay: flow cytometry on 2C T cells, actively loaded complex at 0.1 nM
[6] = target: T cell receptor of 2C cytotoxic T lymphocytes; assay: flow cytometry on 2C T cells, actively against passively loaded complex
[7] = target: T cell receptor of 2C cytotoxic T lymphocytes; assay: flow cytometry on 2C T cells, actively loaded complex, half maximal staining
[8] = target: T cell receptor of 2C cytotoxic T lymphocytes; assay: flow cytometry on 2C T cells, passively loaded complex, half maximal staining

Chain of QL9 peptide-loaded H-2 L^d/Ig complex (P01897 25-309, one chain of several): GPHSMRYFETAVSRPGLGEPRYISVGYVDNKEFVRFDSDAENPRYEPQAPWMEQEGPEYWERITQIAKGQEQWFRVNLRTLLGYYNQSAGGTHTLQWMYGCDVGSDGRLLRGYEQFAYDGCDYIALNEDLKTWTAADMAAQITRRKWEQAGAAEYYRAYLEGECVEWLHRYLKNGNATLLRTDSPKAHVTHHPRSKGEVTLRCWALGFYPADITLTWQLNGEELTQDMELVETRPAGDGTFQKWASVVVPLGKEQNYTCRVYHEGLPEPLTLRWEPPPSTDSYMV
Chain of SIY peptide-loaded H-2 K^b/Ig complex (P01901 22-305, one chain of several): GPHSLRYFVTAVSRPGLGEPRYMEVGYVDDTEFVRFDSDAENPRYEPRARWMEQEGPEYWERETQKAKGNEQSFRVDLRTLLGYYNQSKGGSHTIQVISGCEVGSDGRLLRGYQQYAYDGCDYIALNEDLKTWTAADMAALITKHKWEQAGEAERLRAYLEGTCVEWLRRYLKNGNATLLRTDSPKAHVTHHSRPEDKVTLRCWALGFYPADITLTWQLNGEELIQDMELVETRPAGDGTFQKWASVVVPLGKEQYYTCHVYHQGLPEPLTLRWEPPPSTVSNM

In the case of “QL9 peptide-loaded H-2 L^d/Ig complex (from UniProt P01897 25-309) (peptide-MHC)”, the half maximal inhibition of target cell lysis by 2C CTL [1] was 10 nM, the target cell lysis by 2C CTL (percent specific lysis, chromium release) [1] was 2% and the pEC50 [2] was 9.00.
“SIY peptide-loaded H-2 K^b/Ig complex (from UniProt P01901 22-305) (peptide-MHC)” showed a 2C CTL mediated lysis of target cells (specific lysis) [1] of 35%, a concentration of maximal inhibition of proliferation of 2C CTL stimulated by allogeneic splenic cells [1] of 20 nM and a half maximal inhibition of proliferation of 2C CTL [1] of 1 nM. It also gave a stimulation index of 2C CTL proliferation ([3H]thymidine) [1] of 10, a lowest concentration at which staining was seen [3] of 0.1 nM and a concentration required for staining [4] of 10 nM. It also gave a mean channel fluorescence (MCF) at 0.1 nM [5] of 53, a pEC50 [2] of 9.00 and a fold more effective in staining than the “passively” loaded complex [6] of 10 to 100 fold. The pEC50 [7] was 9.00 and the pEC50 [8] was 8.00.
